# From patent publication US20160367497A1, “METHODS AND COMPOSITIONS FOR TREATING NEUROPATHIES” (Washington University, priority 2007, published 2016)
# B1: NMNAT1: nicotinamide mononucleotide adenylyltransferase1, lentivirus expressed (protein, UniProt Q9EPA7 1-285, looked up)
# Nicotinamide/nicotinic acid …: MDSSKKTEVVLLACGSFNPITNMHLRLFELAKDYMHATGKYSVIKGIISPVGDAYKKKGLIPAHHRIIMAELATKNSHWVEVDTWESLQKEWVETVKVLRYHQEKLATGSCSYPQSSPALEKPGRKRKWADQKQDSSPQKPQEPKPTGVPKVKLLCGADLLESFSVPNLWKMEDITQIVANFGLICITRAGSDAQKFIYESDVLWRHQSNIHLVNEWITNDISSTKIRRALRRGQSIRYLVPDLVQEYIEKHELYNTESEGRNAGVTLAPLQRNAAEAKHNHSTL
# B2: NmPRT: nicotinamide phosphoribosyltransferase (protein, UniProt P43490 1-491, looked up)
# Nicotinamide …: MNPAAEAEFNILLATDSYKVTHYKQYPPNTSKVYSYFECREKKTENSKLRKVKYEETVFYGLQYILNKYLKGKVVTKEKIQEAKDVYKEHFQDDVFNEKGWNYILEKYDGHLPIEIKAVPEGFVIPRGNVLFTVENTDPECYWLTNWIETILVQSWYPITVATNSREQKKILAKYLLETSGNLDGLEYKLHDFGYRGVSSQETAGIGASAHLVNFKGTDTVAGLALIKKYYGTKDPVPGYSVPAAEHSTITAWGKDHEKDAFEHIVTQFSSVPVSVVSDSYDIYNACEKIWGEDLRHLIVSRSTQAPLIIRPDSGNPLDTVLKVLEILGKKFPVTENSKGYKLLPPYLRVIQGDGVDINTLQEIVEGMKQKMWSIENIAFGSGGGLLQKLTRDLLNCSFKCSYVVTNGLGINVFKDPVADPNKRSKKGRLSLHRTPAGNFVTLEEGKGDLEEYGQDLLHTVFKNGKVTKSYSFDEIRKNAQLNIELEAAHH
# How the values were obtained:
# DRG neuronal explant = assay: vincristine-induced axonal degeneration in DRG neuronal explants; assay type: cell-based, mouse; details: 0.5 μM vincristine for up to 9 d; lentiviral expression
# Procedure: (§1) To identify the mechanism of delayed axonal degeneration mediated by the Wlds protein, we employed an in-vitro Wallerian degeneration model. Primary DRG explant neurons were infected with lentivirus expressing the appropriate proteins, and axons were injured by either removal of the neuronal cell body (transection) or growth in vincristine (toxic).
# Quantitative analysis of axonal degeneration was performed as previously described (Zhai, et al., Neuron 39:217-25, 2003). Briefly, the cultures were examined using phase contrast microscopy at the indicated times. Axons with a fragmented, non-refractile appearance were designated as “degenerated.” At each time point, at least 200 singly distinguishable axons were blindly scored from several randomly taken images of each culture. Each condition was tested in triplicate explants in each experiment. Results were obtained from 2-4 independent experiments for each condition. Statistical analysis was performed by Student's T test. For calculations of neurite-covered area, digitally captured images from quadruplicate samples of two independent experiments were analyzed using analysis 3.1 software (Soft Imaging System, Lakewood, Colo.). […]
# [1] = tested on: DRG neuronal explant cultures; assay: in vitro Wallerian degeneration assay, DRG explant neurite transection; assay type: cell-based, mouse; details: lentivirus-mediated expression in DRG neurons
# Procedure: as §1
# Mouse DRG explants from E12.5 embryos were cultured in the presence of 1 nM nerve growth factor. Non-neuronal cells were removed from the cultures by adding 5-fluorouracil to the culture medium. Transection of neurites was performed at 10-20 DIV using an 18-gauge needle to remove the neuronal cell bodies. […]
# Quantitative analysis of axonal degeneration was performed as previously described (Zhai, et al., Neuron 39:217-25, 2003). […] Axons with a fragmented, non-refractile appearance were designated as “degenerated.” At each time point, at least 200 singly distinguishable axons were blindly scored from several randomly taken images of each culture. […] For calculations of neurite-covered area, digitally captured images from quadruplicate samples of two independent experiments were analyzed using analysis 3.1 software (Soft Imaging System, Lakewood, Colo.).
# Cell culture, in vitro axotomy, and quantification of axonal degeneration. […] Quantitative analysis of neurite degeneration was performed.
Molecule,axon length and refractility (DRG neuronal explant),axonal/neurite degeneration after transection [1]
B1,maintained their original length and refractility,
B2,,shows axonal protection
